Measurements published in article PMC4615246 (Nucleus, 2015).

Legend:
LacI-CFP-Nup155 = biological target: T1, LacI-CFP-Nup155 (human, UniProt O75694 1-1391); assay: LacI/LacO array recruitment in cells
T1 sequence: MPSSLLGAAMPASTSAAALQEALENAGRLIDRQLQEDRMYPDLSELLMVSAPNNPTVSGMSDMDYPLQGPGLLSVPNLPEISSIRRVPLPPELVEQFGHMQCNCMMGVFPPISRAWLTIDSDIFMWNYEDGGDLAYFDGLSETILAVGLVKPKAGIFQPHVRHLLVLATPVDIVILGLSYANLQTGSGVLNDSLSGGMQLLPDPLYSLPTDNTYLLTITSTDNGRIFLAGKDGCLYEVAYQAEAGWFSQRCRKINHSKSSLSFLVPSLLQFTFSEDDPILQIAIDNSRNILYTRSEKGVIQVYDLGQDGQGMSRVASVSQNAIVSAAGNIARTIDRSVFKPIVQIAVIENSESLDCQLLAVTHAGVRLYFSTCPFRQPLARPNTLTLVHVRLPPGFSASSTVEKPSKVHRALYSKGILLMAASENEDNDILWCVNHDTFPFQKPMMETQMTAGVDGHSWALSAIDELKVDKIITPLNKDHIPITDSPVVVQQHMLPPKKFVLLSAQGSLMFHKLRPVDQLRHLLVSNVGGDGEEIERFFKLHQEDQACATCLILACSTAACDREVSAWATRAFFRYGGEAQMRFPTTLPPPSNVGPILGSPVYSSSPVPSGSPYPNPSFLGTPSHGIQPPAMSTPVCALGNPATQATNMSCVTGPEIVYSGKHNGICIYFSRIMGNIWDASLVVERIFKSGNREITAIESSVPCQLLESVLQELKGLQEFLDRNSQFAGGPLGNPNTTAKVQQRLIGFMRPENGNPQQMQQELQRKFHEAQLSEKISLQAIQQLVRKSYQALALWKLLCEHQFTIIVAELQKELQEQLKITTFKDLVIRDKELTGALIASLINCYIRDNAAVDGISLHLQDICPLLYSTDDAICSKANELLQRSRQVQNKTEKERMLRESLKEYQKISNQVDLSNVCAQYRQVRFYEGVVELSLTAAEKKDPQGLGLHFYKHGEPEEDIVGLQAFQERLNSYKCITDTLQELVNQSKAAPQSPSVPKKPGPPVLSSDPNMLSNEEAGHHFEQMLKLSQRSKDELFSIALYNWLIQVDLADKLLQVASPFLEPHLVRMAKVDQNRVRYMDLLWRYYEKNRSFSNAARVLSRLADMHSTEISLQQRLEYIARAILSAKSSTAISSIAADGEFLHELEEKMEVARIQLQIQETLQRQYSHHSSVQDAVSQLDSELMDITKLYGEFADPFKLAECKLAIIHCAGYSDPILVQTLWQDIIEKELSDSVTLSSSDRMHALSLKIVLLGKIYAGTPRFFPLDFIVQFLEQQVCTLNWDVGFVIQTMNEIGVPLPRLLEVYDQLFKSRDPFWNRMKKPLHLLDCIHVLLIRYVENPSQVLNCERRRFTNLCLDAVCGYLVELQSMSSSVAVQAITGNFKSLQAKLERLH

LacI-CFP-Nup107 = biological target: T2, LacI-CFP-Nup107 (human, UniProt P57740 1-925); assay: LacI/LacO array recruitment in cells
T2 sequence: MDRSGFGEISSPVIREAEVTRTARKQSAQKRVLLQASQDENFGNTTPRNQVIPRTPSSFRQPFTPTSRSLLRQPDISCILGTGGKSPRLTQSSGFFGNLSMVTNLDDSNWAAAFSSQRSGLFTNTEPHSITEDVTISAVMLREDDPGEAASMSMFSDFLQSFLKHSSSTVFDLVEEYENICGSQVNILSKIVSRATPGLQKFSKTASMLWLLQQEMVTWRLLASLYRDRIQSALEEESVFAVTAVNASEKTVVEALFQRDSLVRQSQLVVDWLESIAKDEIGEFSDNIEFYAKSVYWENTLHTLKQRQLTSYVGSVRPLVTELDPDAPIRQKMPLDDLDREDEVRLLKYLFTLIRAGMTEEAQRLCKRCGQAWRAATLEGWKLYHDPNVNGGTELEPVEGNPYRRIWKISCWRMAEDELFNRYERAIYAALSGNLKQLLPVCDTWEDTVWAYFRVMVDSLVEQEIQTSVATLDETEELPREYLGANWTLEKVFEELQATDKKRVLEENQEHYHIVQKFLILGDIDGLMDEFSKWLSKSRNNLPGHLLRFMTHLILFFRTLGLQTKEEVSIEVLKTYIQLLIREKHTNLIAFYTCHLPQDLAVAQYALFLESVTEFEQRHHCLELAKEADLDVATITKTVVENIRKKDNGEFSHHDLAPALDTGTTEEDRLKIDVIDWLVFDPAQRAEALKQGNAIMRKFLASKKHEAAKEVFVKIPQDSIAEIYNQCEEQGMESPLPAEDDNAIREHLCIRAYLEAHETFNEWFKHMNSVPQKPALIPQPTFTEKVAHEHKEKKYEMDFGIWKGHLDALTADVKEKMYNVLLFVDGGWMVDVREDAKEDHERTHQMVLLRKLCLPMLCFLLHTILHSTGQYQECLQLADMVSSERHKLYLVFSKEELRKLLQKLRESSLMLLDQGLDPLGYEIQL

percent of transfected cells showing colocalization (LacI-CFP-Nup155): 2%
percent of transfected cells showing colocalization (LacI-CFP-Nup107): 9%
B1: Nup93 (endogenous) (natural protein)
chain: MDTEGFGELLQQAEQLAAETEGISELPHVERNLQEIQQAGERLRSRTLTRTSQETADVKASVLLGSRGLDISHISQRLESLSAATTFEPLEPVKDTDIQGFLKNEKDNALLSAIEESRKRTFGMAEEYHRESMLVEWEQVKQRILHTLLASGEDALDFTQESEPSYISDVGPPGRSSLDNIEMAYARQIYIYNEKIVNGHLQPNLVDLCASVAELDDKSISDMWTMVKQMTDVLLTPATDALKNRSSVEVRMEFVRQALAYLEQSYKNYTLVTVFGNLHQAQLGGVPGTYQLVRSFLNIKLPAPLPGLQDGEVEGHPVWALIYYCMRCGDLLAASQVVNRAQHQLGEFKTWFQEYMNSKDRRLSPATENKLRLHYRRALRNNTDPYKRAVYCIIGRCDVTDNQSEVADKTEDYLWLKLNQVCFDDDGTSSPQDRLTLSQFQKQLLEDYGESHFTVNQQPFLYFQVLFLTAQFEAAVAFLFRMERLRCHAVHVALVLFELKLLLKSSGQSAQLLSHEPGDPPCLRRLNFVRLLMLYTRKFESTDPREALQYFYFLRDEKDSQGENMFLRCVSELVIESREFDMILGKLENDGSRKPGVIDKFTSDTKPIINKVASVAENKGLFEEAAKLYDLAKNADKVLELMNKLLSPVVPQISAPQSNKERLKNMALSIAERYRAQGISANKFVDSTFYLLLDLITFFDEYHSGHIDRAFDIIERLKLVPLNQESVEERVAAFRNFSDEIRHNLSEVLLATMNILFTQFKRLKGTSPSSSSRPQRVIEDRDSQLRSQARTLITFAGMIPYRTSGDTNARLVQMEVLMN
